Data published in publication PMC11217727.

Tests used:
[1] = target: FGFR3 S249C stably expressed in FaDu head and neck cancer cells (human) (UniProt P22607); assay: nonreducing SDS-PAGE with Western blot
[2] = target: FGFR3 S249C stably expressed in BaF3 cells (human) (UniProt P22607); assay: nonreducing SDS-PAGE with Western blot

Substance | percent of FGFR3 present as dimer [1] [%] | percent of FGFR3 present as dimer [2] [%]
FGFR3 S249C stably expressed in FaDu head and neck cancer cells (from UniProt P22607 23-806) (receptor) | 70 | –
FGFR3 S249C stably expressed in BaF3 cells (from UniProt P22607 23-806) (receptor) | – | 6
